Results reported in paper PMC8537947, “Improved Radiolytic Stability of a ^68Ga-labelled Collagelin Analogue for the Imaging of Fibrosis” (Pharmaceuticals, 2021).
Bridge positions count the residues as written; N and C are the ends. Square brackets hold non-standard residues; d marks the D form. Peptide text beside a SMILES is read from it. * marks the point of attachment. NOTA = O=C(O)CN1CCN(CC(=O)O)CCN(CC(=O)*)CC1; Nle = CCCC[C@H](N)C(=O)O; AEEA = NCCOCCOCC(=O)O

Assay: in vivo
Set-up: species or system Sprague-Dawley rats
Details: Sprague-Dawley, rat, iv, total radioactivity
Method: Sixteen male (n = 10; 363.3 ± 19.6 g) and female (n = 6; 199.2 ± 5.5 g) Sprague–Dawley rats were used for ex vivo organ distribution of the [^68Ga]Ga-NO2A-[Nle13]-Col for the subsequent extrapolation and calculation of human dosimetry. The male and female animals were administered into the tail vein with, respectively, 2.3 ± 0.8 MBq and 1.4 ± 0.5 MBq, sacrificed at 5, 10, 30, 40, 60, and 120 min post administration, and the organs were harvested, weighted, and measured for their radioactivity content. Samples from the blood, heart, lung, liver, spleen, adrenal glands, kidneys, intestines with or without contents, muscle, testis, bone, brain, pancreas, urine bladder, and bone marrow were collected. To monitor radioactivity elimination and recovery, the radioactivity of the remaining carcass was also measured. The radioactivity measurements were corrected for decay and converted into standardized uptake values (SUVs, Table S2) according to Equation (2), wherein the radioactivity is expressed in MBq and the weight in grams:(2) SUV=Radioactivityorgan∗weightrat/Radioactivityinjected∗weightorgan

[1] = female, 1.4 MBq, SUV bladder (UB)
[2] = female, 1.4 MBq, SUV blood (BL)
[3] = female, 1.4 MBq, SUV brain (BR)
[4] = female, 1.4 MBq, SUV heart (HE)
[5] = female, 1.4 MBq, SUV liver (LI)
[6] = female, 1.4 MBq, SUV lungs (LU)
[7] = female, 1.4 MBq, SUV muscle (MU)
[8] = female, 1.4 MBq, SUV red bone marrow (BM)
[9] = female, 1.4 MBq, SUV spleen (SP)
[10] = female, SUV large intestine without content (INL-)
[11] = female, SUV small intestine with its content (INS+)

## CCCC[C@@H]1NC(=O)[C@H](C(C)C)NC(=O)[C@H](CCCNC(=N)N)NC(=O)CNC(=O)[C@@H]2CCCN2C(=O)[C@@H](NC(=O)COCCOCCNC(=O)CN2CCN(CC(=O)O)CCN(CC(=O)O)CC2)CSSC[C@@H](C(=O)O)NC(=O)[C@@H]2CCCN2C(=O)CNC(=O)[C@H](CCC(=O)O)NC(=O)[C@H](CC(=O)O)NC(=O)[C@H](CC(=O)O)NC(=O)CNC(=O)[C@H](CC(C)C)NC(=O)[C@H](Cc2c[nH]cn2)NC(=O)[C@H](CC(C)C)NC(=O)CNC(=O)[C@H](Cc2c[nH]cn2)NC1=O [[^68Ga]Ga-NO2A-[Nle^13]-Col, [^68Ga]Ga-NOTA-PEG2-c[CPGRVNleHGLHLGDDEGPC], metal not drawn] ({NOTA-AEEA}-CPGRV[Nle]HGLHLGDDEGPC-OH; disulfide 1-18)
SUV of adrenal glands, bone marrow and urinary bladder
  SUV at 2 h: < 0.25 SUV
SUV of all vital organs
  SUV at 1 h: < 0.2 SUV
SUV of the remainder of the organs
  SUV at 2 h: < 0.1 SUV
Both sexes, SUV of most of the organs
  SUV at 2 h: < 0.25 SUV
[1]
  SUV at 5 min: 4.88 SUV
  SUV at 10 min: 6.96 SUV
  SUV at 0.5 h: 5.83 SUV
  SUV at 40 min: 0.843 SUV
  SUV at 1 h: 1.08 SUV
  SUV at 2 h: 0.321 SUV
[2]
  SUV at 10 min: 1.42 SUV
  SUV at 0.5 h: 0.497 SUV
  SUV at 40 min: 0.432 SUV
  SUV at 1 h: 0.217 SUV
  SUV at 2 h: 0.0412 SUV
female, 1.4 MBq, SUV bone (BO)
  SUV at 5 min: 0.391 SUV
  SUV at 10 min: 0.403 SUV
  SUV at 0.5 h: 0.179 SUV
  SUV at 40 min: 0.106 SUV
  SUV at 1 h: 0.064 SUV
  SUV at 2 h: 0.031 SUV
[3]
  SUV at 5 min: 0.073 SUV
  SUV at 10 min: 0.0964 SUV
  SUV at 0.5 h: 0.0189 SUV
  SUV at 40 min: 0.0174 SUV
  SUV at 1 h: 0.0149 SUV
  SUV at 2 h: 0.0062 SUV
[4]
  SUV at 5 min: 0.741 SUV
  SUV at 10 min: 0.68 SUV
  SUV at 0.5 h: 0.207 SUV
  SUV at 40 min: 0.18 SUV
  SUV at 1 h: 0.104 SUV
  SUV at 2 h: 0.026 SUV
[5]
  SUV at 5 min: 0.438 SUV
  SUV at 10 min: 0.452 SUV
  SUV at 0.5 h: 0.171 SUV
  SUV at 40 min: 0.147 SUV
  SUV at 1 h: 0.114 SUV
  SUV at 2 h: 0.0889 SUV
[6]
  SUV at 5 min: 1.12 SUV
  SUV at 10 min: 0.986 SUV
  SUV at 0.5 h: 0.385 SUV
  SUV at 40 min: 0.427 SUV
  SUV at 1 h: 0.276 SUV
  SUV at 2 h: 0.0631 SUV
[7]
  SUV at 5 min: 0.514 SUV
  SUV at 10 min: 0.295 SUV
  SUV at 0.5 h: 0.214 SUV
  SUV at 40 min: 0.0802 SUV
  SUV at 1 h: 0.0488 SUV
  SUV at 2 h: 0.0213 SUV
female, 1.4 MBq, SUV ovarian (OV)
  SUV at 2 h: 0.124 SUV
[8]
  SUV at 5 min: 0.484 SUV
  SUV at 10 min: 0.443 SUV
  SUV at 0.5 h: 0.162 SUV
  SUV at 40 min: 0.769 SUV
  SUV at 1 h: 0.113 SUV
  SUV at 2 h: 0.343 SUV
[9]
  SUV at 5 min: 0.423 SUV
  SUV at 10 min: 0.354 SUV
  SUV at 0.5 h: 0.174 SUV
  SUV at 40 min: 0.135 SUV
  SUV at 1 h: 0.0938 SUV
female, SUV adrenals (AD)
  SUV at 5 min: 0.724 SUV
  SUV at 10 min: 1.29 SUV
  SUV at 0.5 h: 0.0127 SUV
  SUV at 40 min: 0.25 SUV
  SUV at 1 h: 0.198 SUV
  SUV at 2 h: 0.128 SUV
female, SUV blood (BL)
  SUV at 5 min: 2.06 SUV
female, SUV kidneys (KI)
  SUV at 5 min: 12.1 SUV
  SUV at 10 min: 11.3 SUV
  SUV at 0.5 h: 6.32 SUV
  SUV at 40 min: 12.9 SUV
  SUV at 1 h: 12.8 SUV
  SUV at 2 h: 9.08 SUV
[10]
  SUV at 5 min: 0.569 SUV
  SUV at 10 min: 0.91 SUV
  SUV at 0.5 h: 0.193 SUV
  SUV at 40 min: 0.211 SUV
  SUV at 1 h: 0.103 SUV
  SUV at 2 h: 0.046 SUV
female, SUV ovarian (OV)
  SUV at 5 min: 0.927 SUV
  SUV at 10 min: 1.87 SUV
  SUV at 0.5 h: 0.341 SUV
  SUV at 40 min: 0.335 SUV
  SUV at 1 h: 0.159 SUV
female, SUV pancreas (PA)
  SUV at 5 min: 0.439 SUV
  SUV at 10 min: 0.361 SUV
  SUV at 0.5 h: 0.164 SUV
  SUV at 40 min: 0.0609 SUV
  SUV at 1 h: 0.0659 SUV
  SUV at 2 h: 0.029 SUV
[11]
  SUV at 5 min: 0.436 SUV
  SUV at 10 min: 0.558 SUV
  SUV at 0.5 h: 0.277 SUV
  SUV at 40 min: 0.165 SUV
  SUV at 1 h: 0.129 SUV
  SUV at 2 h: 0.0343 SUV
